Drawing on publication PMC3790000, “The Extended Transmembrane Orai1 N-terminal (ETON) Region Combines Binding Interface and Gate for Orai1 Activation by STIM1*^([image sbox.jpg])^♦” (The Journal of Biological Chemistry, 2013), this text covers Kd for two molecules.

The experiment addresses T1, YFP-STIM1 233–485 (human, UniProt Q13586-1 233-485).
T1 construct: the YFP fluorescence is the read-out of the thermophoresis; also called STIM1 233–485 C-terminal fragment; slightly extended OASF fragment; source: HEK293, transfected, in lysate (supernatant after Nonidet P40 lysis)
Kind of experiment: MST; monolith NT.115 (Nanotemper); YFP-STIM1 233–485 (or free YFP) in HEK293 cell lysate kept constant, Orai1 peptide varied, up to 16 dilutions, 5 min incubation, glass capillaries; curve fitted to a one-site binding model. The note with it: one partner purified.

T1 sequence (Q13586 233-485): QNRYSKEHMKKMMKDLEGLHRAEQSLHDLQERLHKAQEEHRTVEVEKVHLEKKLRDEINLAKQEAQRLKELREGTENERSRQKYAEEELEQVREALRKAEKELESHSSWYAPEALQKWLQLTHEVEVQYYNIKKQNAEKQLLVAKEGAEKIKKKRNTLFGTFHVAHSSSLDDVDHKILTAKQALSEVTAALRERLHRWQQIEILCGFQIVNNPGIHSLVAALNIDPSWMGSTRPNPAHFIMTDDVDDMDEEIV

B1: Orai1 N-terminal peptide aa77–91 (peptide, UniProt Q96D31-1 77-91, looked up)
peptide: RKLYLSRAKLKASSR
notes: also called Orai1 NT(aa77–91); Orai1 aa77–91; source: synthetic peptide, bought: peptide 2.0
Regarding B1, the Kd (in general, the constant that tells how readily two partners part at equilibrium) is more than 4700 µM.

B2: Orai1 aa70–91 L74E/W76E N-terminal peptide (peptide, UniProt Q96D31-1 70-91, looked up)
peptide: SMQAESERKLYLSRAKLKASSR
notes: also called Orai1 NT(aa70–91 L74E/W76E); source: synthetic peptide, bought: peptide 2.0
B2 gave a Kd of 406 ± 68 µM.
